Our source for the IC50 values is US20090028788A1 (WASHINGTON UNIVERSITY IN ST LOUIS, published 2009).

Experiment [1] addresses T1, purified human αvβ3 integrin protein (human, UniProt P06756 31-1048; P05106 27-788).
T1 construct: Bought heterodimer; also called ABI; purified αvβ3 integrin
Description: competition with 125I-echistatin on purified human αvβ3 integrin, filter plate.

Experiment [2] deals with T1, purified human αvβ3 integrin protein. The experiment is described as above. The source holds these as a separate data set.
Experiment [3] shares this target. Described as above. This is another data set of the same source.
For experiment [4] the target is unchanged. Description: competition with 125I-echistatin on purified αvβ3 integrin, filtration plate (Example 3).

[ ]: non-standard residue; d: D form. The star is where a group is joined. Cypate = CC1(C)C(/C=C/C=C/C=C/C=C2/N(CCC(=O)*)c3ccc4ccccc4c3C2(C)C)=[N+](CCC(=O)O)c2ccc3ccccc3c21

For “Cypate(Octreotate)1-(Arg-Gly-Asp-NH2)1 (peptide)”, the IC50 (in general, the point on the concentration scale where inhibition reaches its midpoint) in experiment [1] was 4.67 µM.

B1: Cyclo(Lys(Cypate)-Arg-Gly-Asp-DPhe-Val) (peptide)
peptide: cyclo(K(Cypate)RGD[dF]V)
SMILES: CC(C)[C@@H]1NC(=O)[C@@H](Cc2ccccc2)NC(=O)[C@H](CC(=O)O)NC(=O)CNC(=O)[C@H](CCCNC(=N)N)NC(=O)[C@H](CCCCNC(=O)CCN2/C(=C/C=C/C=C/C=C/C3=[N+](CCC(=O)O)c4ccc5ccccc5c4C3(C)C)C(C)(C)c3c2ccc2ccccc32)NC1=O
notes: also called Cyclo(K^(Cypate)RGDfV); cyclo-[K^(Cypate)RGDfV]
As for B1, the figures for the IC50 in experiment [2], in experiment [3] and in experiment [4] were 79.5 µM, 79.5 µM and 79.1 µM, respectively.

B2: Cypate-Lys-Arg-Gly-Asp-DPhe-Asp-DPhe-EAhx-NH2 (peptide)
peptide: KRGDXDXX
HELM: PEPTIDE1{[CC1(C)C(/C=C/C=C/C=C/C=C2/N(CCC(=O)[*:2])c3ccc4ccccc4c3C2(C)C)=[N+](CCC(=O)O)c2ccc3ccccc3c21].K.R.G.D.[dF].D.[dF].[O=C(CCCCCN[*:1])[*:2]].[am]}$$$$V2.0
SMILES: CC1(C)C(/C=C/C=C/C=C/C=C2/N(CCC(=O)N[C@@H](CCCCN)C(=O)N[C@@H](CCCNC(=N)N)C(=O)NCC(=O)N[C@@H](CC(=O)O)C(=O)N[C@H](Cc3ccccc3)C(=O)N[C@@H](CC(=O)O)C(=O)N[C@H](Cc3ccccc3)C(=O)NCCCCCC(N)=O)c3ccc4ccccc4c3C2(C)C)=[N+](CCC(=O)O)c2ccc3ccccc3c21
B2 registered an IC50 in experiment [1] of 0.328 µM.
